# B1: Mesd: Recombinant full-length mouse Mesd expressed in E. coli, N-terminal polyhistidine tail, lacking the signal peptide (protein)
# chain: ADTPGEATPPPRKKKDIRDYNDADMARLLEQWEKDDDIEEGDLPEHKRPSAPIDFSKLDPGKPESILKMTKKGKTLMMFVTVSGNPTEKETEEITSLWQGSLFNANYDVQRFIVGSDRAIFMLRDGSYAWEIKDFLVSQDRCAEVTLEGQMYPGKGGGSKEKNKTKPEKAKKKEGDRKPRASKEDNRAGSRREDL
# modifications: left off: small tags and cut ends
# notes: Recombinant full-length mouse Mesd expressed in E. coli, N-terminal polyhistidine tail, lacking the signal peptide
# Key:
# LRP = target: T1, LRP (Homo sapiens, UniProt Q07954); experiment: 125I-Mesd binding to U87 cells and aortic smooth muscle cells expressing abundant LRP; details: 125I-Mesd 5 nM, 4 hours at 4° C.
# T1 construct: U87 cells and SMC express abundant LRP; endogenous in cells; host or cells: U87 glioblastoma cells; human aortic smooth muscle cells
# T1 sequence (Q07954 20-4544): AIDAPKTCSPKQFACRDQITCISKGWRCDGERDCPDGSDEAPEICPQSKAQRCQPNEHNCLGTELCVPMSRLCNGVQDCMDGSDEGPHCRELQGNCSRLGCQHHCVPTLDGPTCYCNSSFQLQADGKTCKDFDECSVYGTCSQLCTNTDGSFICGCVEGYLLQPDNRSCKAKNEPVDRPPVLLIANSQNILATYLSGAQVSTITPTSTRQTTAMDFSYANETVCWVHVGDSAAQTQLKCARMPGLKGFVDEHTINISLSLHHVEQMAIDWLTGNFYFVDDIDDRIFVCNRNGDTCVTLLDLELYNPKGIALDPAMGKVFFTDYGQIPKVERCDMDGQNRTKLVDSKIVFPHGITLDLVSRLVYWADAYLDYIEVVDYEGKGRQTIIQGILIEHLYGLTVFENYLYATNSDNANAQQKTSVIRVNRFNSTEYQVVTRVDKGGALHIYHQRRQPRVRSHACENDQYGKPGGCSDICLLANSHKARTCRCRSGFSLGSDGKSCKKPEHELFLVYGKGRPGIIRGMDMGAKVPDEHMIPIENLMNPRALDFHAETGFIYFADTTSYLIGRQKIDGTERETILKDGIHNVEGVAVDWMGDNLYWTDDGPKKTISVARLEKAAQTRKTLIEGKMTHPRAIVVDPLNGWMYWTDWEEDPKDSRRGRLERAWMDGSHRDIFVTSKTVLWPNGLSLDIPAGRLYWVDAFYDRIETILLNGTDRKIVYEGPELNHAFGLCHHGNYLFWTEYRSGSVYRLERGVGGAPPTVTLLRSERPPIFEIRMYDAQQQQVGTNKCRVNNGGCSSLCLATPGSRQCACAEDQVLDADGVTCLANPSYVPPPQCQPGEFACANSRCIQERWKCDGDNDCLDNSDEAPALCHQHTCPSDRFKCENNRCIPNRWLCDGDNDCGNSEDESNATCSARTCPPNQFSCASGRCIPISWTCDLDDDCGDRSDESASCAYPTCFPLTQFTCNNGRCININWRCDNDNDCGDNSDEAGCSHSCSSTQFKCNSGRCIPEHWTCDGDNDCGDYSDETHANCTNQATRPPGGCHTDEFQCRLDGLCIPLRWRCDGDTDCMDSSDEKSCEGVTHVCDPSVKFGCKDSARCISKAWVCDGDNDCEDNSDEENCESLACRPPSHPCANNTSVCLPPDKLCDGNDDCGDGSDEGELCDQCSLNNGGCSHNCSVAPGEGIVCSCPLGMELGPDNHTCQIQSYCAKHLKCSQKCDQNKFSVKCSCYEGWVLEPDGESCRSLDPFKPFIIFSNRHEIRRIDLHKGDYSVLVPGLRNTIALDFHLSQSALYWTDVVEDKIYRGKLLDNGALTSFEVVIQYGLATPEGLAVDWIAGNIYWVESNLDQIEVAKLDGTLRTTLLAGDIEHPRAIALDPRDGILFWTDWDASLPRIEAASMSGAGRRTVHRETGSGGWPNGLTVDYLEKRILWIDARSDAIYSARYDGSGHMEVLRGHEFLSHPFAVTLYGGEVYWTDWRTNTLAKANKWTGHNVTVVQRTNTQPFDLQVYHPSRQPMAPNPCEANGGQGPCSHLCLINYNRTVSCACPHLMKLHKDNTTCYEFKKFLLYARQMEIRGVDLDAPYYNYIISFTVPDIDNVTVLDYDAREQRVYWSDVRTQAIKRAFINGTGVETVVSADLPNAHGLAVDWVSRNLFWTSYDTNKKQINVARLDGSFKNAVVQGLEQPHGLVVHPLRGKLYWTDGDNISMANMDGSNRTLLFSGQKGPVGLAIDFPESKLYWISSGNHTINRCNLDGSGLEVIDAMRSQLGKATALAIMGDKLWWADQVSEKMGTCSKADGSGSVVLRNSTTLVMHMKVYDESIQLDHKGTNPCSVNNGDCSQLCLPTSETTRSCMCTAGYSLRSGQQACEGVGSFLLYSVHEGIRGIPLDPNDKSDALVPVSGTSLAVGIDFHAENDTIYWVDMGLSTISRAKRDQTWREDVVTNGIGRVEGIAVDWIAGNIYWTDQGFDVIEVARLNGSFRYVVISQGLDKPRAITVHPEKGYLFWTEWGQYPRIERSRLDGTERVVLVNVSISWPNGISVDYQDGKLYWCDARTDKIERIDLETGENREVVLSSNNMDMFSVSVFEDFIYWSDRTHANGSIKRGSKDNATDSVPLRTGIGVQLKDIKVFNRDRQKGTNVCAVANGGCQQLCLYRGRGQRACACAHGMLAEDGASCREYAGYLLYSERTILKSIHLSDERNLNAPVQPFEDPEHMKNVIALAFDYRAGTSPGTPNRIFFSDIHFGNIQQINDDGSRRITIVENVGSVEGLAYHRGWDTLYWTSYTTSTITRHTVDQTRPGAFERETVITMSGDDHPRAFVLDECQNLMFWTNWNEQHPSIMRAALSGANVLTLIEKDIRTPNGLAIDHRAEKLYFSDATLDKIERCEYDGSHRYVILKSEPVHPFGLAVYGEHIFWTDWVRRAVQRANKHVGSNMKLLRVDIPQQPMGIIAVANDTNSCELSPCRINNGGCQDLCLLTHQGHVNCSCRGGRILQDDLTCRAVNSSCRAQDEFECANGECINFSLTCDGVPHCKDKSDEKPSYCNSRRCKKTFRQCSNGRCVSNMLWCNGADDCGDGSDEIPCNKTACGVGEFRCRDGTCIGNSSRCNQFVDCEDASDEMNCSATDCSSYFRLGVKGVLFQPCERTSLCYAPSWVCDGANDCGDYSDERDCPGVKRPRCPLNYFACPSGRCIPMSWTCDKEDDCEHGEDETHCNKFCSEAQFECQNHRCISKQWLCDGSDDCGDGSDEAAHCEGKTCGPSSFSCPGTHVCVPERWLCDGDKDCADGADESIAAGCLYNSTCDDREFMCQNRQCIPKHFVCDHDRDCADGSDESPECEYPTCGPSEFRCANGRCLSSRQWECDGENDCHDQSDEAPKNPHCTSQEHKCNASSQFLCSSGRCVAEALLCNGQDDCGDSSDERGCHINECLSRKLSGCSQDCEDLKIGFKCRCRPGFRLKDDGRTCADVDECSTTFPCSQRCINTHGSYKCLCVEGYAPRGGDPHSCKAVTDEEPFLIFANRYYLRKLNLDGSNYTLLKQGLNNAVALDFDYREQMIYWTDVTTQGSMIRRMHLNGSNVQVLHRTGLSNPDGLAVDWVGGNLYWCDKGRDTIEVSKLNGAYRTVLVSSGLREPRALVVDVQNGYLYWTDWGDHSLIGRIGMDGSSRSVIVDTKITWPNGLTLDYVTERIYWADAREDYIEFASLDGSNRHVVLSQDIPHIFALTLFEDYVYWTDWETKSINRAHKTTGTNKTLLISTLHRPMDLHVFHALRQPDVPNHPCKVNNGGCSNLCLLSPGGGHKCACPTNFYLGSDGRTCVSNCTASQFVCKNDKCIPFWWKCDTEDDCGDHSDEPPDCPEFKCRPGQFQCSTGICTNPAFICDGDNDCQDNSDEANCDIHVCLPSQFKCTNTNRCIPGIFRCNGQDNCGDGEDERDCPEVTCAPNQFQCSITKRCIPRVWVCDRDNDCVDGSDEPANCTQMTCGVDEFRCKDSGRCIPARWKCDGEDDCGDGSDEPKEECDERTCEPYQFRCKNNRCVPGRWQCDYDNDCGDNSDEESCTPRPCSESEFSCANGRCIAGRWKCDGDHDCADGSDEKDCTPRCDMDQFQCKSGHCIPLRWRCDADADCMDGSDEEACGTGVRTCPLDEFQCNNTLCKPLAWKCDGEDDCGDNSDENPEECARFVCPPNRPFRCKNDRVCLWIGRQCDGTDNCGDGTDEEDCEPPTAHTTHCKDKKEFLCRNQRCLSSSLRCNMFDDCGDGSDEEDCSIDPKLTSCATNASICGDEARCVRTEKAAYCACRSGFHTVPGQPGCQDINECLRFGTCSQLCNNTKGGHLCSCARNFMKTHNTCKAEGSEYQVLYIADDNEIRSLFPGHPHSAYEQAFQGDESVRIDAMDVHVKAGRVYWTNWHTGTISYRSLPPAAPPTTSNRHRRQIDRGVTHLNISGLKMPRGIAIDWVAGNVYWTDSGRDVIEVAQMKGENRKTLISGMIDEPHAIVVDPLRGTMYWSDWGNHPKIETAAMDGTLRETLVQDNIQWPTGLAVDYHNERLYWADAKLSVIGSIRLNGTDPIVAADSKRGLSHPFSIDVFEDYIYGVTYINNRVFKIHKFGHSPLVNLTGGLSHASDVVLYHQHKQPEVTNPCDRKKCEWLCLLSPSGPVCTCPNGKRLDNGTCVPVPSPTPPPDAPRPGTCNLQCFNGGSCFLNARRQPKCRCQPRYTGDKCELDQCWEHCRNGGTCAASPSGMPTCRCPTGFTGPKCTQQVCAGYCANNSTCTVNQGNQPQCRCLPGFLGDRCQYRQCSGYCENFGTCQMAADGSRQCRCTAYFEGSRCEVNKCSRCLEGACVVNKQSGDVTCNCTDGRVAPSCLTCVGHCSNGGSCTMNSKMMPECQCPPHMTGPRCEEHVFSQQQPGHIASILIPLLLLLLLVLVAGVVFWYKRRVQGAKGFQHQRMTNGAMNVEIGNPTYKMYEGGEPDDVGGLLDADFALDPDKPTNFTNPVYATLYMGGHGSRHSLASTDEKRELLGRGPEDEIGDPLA
# Experimental: Cells (2×10^5) were seeded into 12-well dishes 1 day prior to assay. Ligand-binding buffer (minimal Eagle's medium containing 0.6% BSA with a different concentration of radioligand, 0.6 ml/well) was added to cell monolayers, in the absence or the presence of 500 nM unlabeled RAP or 500 nM unlabeled Mesd, followed with incubation for 0-4 hours at 4° C. Thereafter, overlying buffer containing unbound ligand was removed, and cell monolayers were washed and lysed in low-SDS lysis buffer (62.5 mM Tris-HCl pH 6.8, 0.2% SDS, 10% v/glycerol) and counted.
# To determine whether Mesd binds to other members of the LDLR family, ^125I-Mesd binding analysis was performed with four groups of cells expressing different members of the LDLR family (FIG. 2). In the first experiment, HEK293 cells were transiently transfected with cDNAs for the LDLR, LRP5, LRP6 or empty pcDNA3 vector. […]
# cytosolic β-catenin = experiment: Cytosolic β-catenin level by western blotting in LRP6-transduced HT1080 cells; format: cell-based, human; details: 0.5 to 5 nM Mesd, 2 hours at 37° C.
# Experimental: […] After washing in ice-cold PBS, cells were collected and homogenized in a glass Dounce homogenizer in buffer consisting of 100 mM Tris-HCl pH 7.4, 140 mM NaCl, 2 mM DTT, 2 mM PMSF, and 1× Complete™ protease inhibitors (500 μl/well). The homogenate was centrifuged for 10 minutes at 500 g, and the supernatant was further centrifuged at 100,000 g at 4° C. for 90 minutes. The resulting supernatant was designated the cytosolic fraction. The β-catenin levels were then examined by western blotting using β-catenin-specific antibody from Cell Signaling Technology. The immunoreactive proteins were detected using the ECL™ system (Amersham). Films showing immunoreactive bands were scanned with a Kodak Digital Science DC 120 Zoom Digital Camera and band intensities were analyzed with Kodak Digital Science1D Image Analysis Software.
# β-catenin is a key molecule in the Wnt/β-catenin signaling pathway. A cytosolic pool of β-catenin interacts with DNA-binding proteins and participates in Wnt signal transduction (Hinck, L., J. Cell Biol. 125: 1327-1340, 1994; Gottardi, C. J., J. Cell Biol. 153: 1049-1060, 2001; Klingelhofer, J., et al., Oncogene 22: 1181-1188, 2003). To determine whether Mesd binding to cell surface LRP6 directly regulates Wnt signaling, we studied the effects of Mesd binding on cytosolic β-catenin levels in HT1080-LRP6 cells. […]
molecule,measurement,setting,value
B1,Specific Mesd binding to U87 or SMC,LRP,minimal
same,Change in cytosolic β-catenin levels,cytosolic β-catenin,no significant change
